This is an account of results in patent KR20220054080A (dated 2022).

By Kd is commonly meant the constant that tells how readily two partners part at equilibrium. A higher Kd goes with lower affinity. As usually defined, the koff is a measure of how fast the partners let go of each other. Read a high koff as fast dissociation. Usually kon stands for the rate constant with which the complex forms. A higher kon goes with fast association. One may read the IC50 as the point on the concentration scale where inhibition reaches its midpoint.

To fix the notation:
B1: SA3856 (antibody, V domains shown)
VH: QMQLVESGGGLIQPGGSLRLSCAASGFTVTSAYMSWVRQAPGKGLEWVSIIYGGGSTYYADSVKGRFTISRDNSKNTLYLQMNSLRAEDTAVYYCTGPYPGRYDYWGRGTLVTVSS
VL: DIQMTQSPSSLSASVGDRVIITCRASQDIRTSLAWFQQRLGEAPRSLIYDASSLQNGVPSKFRGSGSGTDFTLTISSLQPEDFATYYCQQYKTVPLTFGGGTKVEIK
B2: SA4056 (antibody, V domains shown)
VH: QVQLQESGGGLVQPGGSLRLSCAASVITVSSNYMSWVRQAPGKGLEWVSVIYPGGSTYYADSVKGRFTISRDKSKNTLYLQMNSLRAEDTAVYYCARDLDIVGGMDVWGQGTTVTVSS
VL: DIQMTQSPSTLSASVGDRVTITCRASQSISRWLAWYQQKPGQAPKLLIYAASTLQSGVPSRFSGSGSGTEFTLTISSLQPDDFATYYCQQYDSYPRTFGQGTKVDIK
B3: SA4057 (antibody, V domains shown)
VH: B2 VH with Q1E, Q5V, E6Q
VL: QLVLTQPPSVSGAPGQRVTISCTGSSSNIGAPHDVHWYQQLPGTAPRLLIYANNNRPSGVPDRFSGSKSGTSASLAITGLQDEDEADYYCQSYDSSLRAYVFGTGTKVTVL
B4: SA4053 (antibody, V domains shown)
VH: EVQLVQSGGGLVQPGGSLRLSCADSGFTFSSYWMSWVRQVPGKGLEWVANIKQDGSEKYYVDSVKGRFTISRDNAKNSLYLQMNSLRAEDTAVYYCARDVGRGYCSSTSCYRFGGREDFFDYWGQGTLVTVSS
VL: QLVLTQPPSVSAAPGQRVTISCSGSFSNVGNNFVSWYRHLPGTAPELLIYDNNQRPSGIPDRFSASKSGTSATLAITGLHTGDEADYYCGTWDTSLSGVVFGGGTKLTVL
B5: SA3830 (antibody, V domains shown)
VH: QVQLVESGGGLIQPGRSLSLSCAASGFNFDEYSMHWVRQRPGKGLEWVSGIKYNSNTILYADSVKGRFTVSRDNSKNSLYLQMNSLRAEDTAVYYCARDAMRGGDFDHWGQGTLITVSS
VL: DIQMTQSPSYLSASAGDRVTITCRASQSISDWLAWYQHKPGKAPKLLIYKASRLENGVPSRFRGSGSATDFTLTISSLQAEDVAVYYCQQYYSTTWTFGQGTKVDIK
B6: SA4050 (antibody, V domains shown)
VH: QVQLVESGAEVKKPGASVKVSCKASGYTFTGYFIHWVRQAPGQGLEWMGWINPNSGGTNYAQKFQGRVTMTRDTSISTAYMELSRLRSDDTAVYYCARVPHLSGYYYEGVLGYFDYWGQGTLVTVSS
VL: QSALTQPASVSGSPGQSITISCTGTSIDIGSYNFVSWYQRHPGKAPRLLIYDVSDRPSGVSNRFSGSKSANTASLTISGLQAEDEADYYCSSYTSSSLWVFGGGTKLTVL
B7: SA4044 (antibody, V domains shown)
VH: EVQLVQSGGGLIQPGGSLRLSCAASGFTVSSNYMSWVRQAPGKGLEWVSVIYSGGSTYYADSVKGRFTISRDNSKNTLHLQMNSLRAEDTAVYYCARDLPQFDGFDYWGQGTLVTVSS
VL: QSALTQPPSLSVAPGRTARITCGGNNIGSKSVNWYQHMPGQAPVLVIYSDTDRPSGIPERVSGSKSGNTATLSISRVEAGDEADYYCQVWDSTTDHVVFGGGTKLTVL
B8: SA4043 (antibody, V domains shown)
VH: B2 VH
VL: B2 VL

Changes are numbered by the printed parent chain.

In one assay the target is T1, SARS-CoV-2 RBD-mFc (SARS-CoV-2, UniProt P0DTC2 319-541).
T1 construct: range 319-541
Put plainly: Octet QKe BLI, 1:1 global fit. A general note: Biolayer interferometry detects binding as a change in optical thickness at a sensor tip.
B1: the dissociation constant Kd came to 0.0888 nM, the koff was 4.3e-05 s⁻¹ and the association rate constant (kon) was 484000 M⁻¹ s⁻¹.

Turning to B2, the Kd is 0.0907 nM, the koff amounted to 4.32e-05 s⁻¹ and the kon came out at 477000 M⁻¹ s⁻¹.

Molecule B3 came in with a Kd of 0.0284 nM, a koff of 4.96e-06 s⁻¹ and a kon of 175000 M⁻¹ s⁻¹.

B4 registered a Kd of 0.689 nM, a koff of 0.000218 s⁻¹ and a kon of 316000 M⁻¹ s⁻¹.

Molecule B5 gave a Kd of 0.782 nM, a koff of 0.000702 s⁻¹ and a kon of 897000 M⁻¹ s⁻¹.

B6 gave a Kd of 0.0929 nM, a koff of 4.67e-05 s⁻¹ and a kon of 503000 M⁻¹ s⁻¹.

The target of another assay is SARS-CoV-2 RBD-hFc (SARS-CoV-2, UniProt P0DTC2 319-541). Put plainly: cell-based or functional assay.
B1: the “IC50, 세포내 유입(internalization) 억제, HEK293E/ACE2-GFP” value (“IC50 … HEK293E/ACE2-GFP” for short) stood at 11.9 nM.

Regarding B7, the “IC50 … HEK293E/ACE2-GFP” value is 39.2 nM.

B2: the “IC50 … HEK293E/ACE2-GFP” value stood at 28.1 nM.

With B3, the “IC50 … HEK293E/ACE2-GFP” value came to 28.1 nM.

With B8, the “IC50 … HEK293E/ACE2-GFP” value amounted to 12.8 nM.

Take B4: the “IC50 … HEK293E/ACE2-GFP” value was 62.7 nM.

As to B5, the “IC50 … HEK293E/ACE2-GFP” value was 13.5 nM.

Turning to B6, the “IC50 … HEK293E/ACE2-GFP” value amounted to 36.9 nM.

A further assay has as its target T1, SARS-CoV-2 RBD-mFc. The assay is described as follows: competition ELISA: RBD-mFc on coated ACE2-His. In general terms: In an ELISA, binding on a coated surface is turned into a signal by an enzyme label.
In turn, B1 showed an IC50 of 25.1 nM.

Regarding B7, the IC50 came out at 58.3 nM.

As to B2, the half-inhibitory concentration (IC50) amounted to 1.86 nM.

B3: the IC50 stood at 4.81 nM.

As for B8, the IC50 is 1.76 nM.

B4 returned an IC50 of 40.6 nM.

For B5, the IC50 came to 10.2 nM.

In turn, B6 gave an IC50 of 3.14 nM.

In the next assay the target is T2, SARS-CoV-2 스파이크 S1-mFc (SARS-CoV-2, UniProt P0DTC2 16-685).
T2 construct: range 16-685
Put plainly: competition ELISA: S1-mFc on coated ACE2-His.
Take B1: the IC50 stood at 2.11 nM.

The molecule B7 yielded an IC50 of 13.6 nM.

B2: the IC50 came to 1.4 nM.

B8 displayed an IC50 of 1.43 nM.

In turn, B4 displayed an IC50 of 22 nM.

As for B5, the IC50 worked out at 1.86 nM.

For the molecule B6, the IC50 was found to be 1.45 nM.

In another assay the target is SARS-CoV RBD-His (#40150-V08B2, Sino Biological) (SARS-CoV, UniProt P59594 306-527). The assay is described as follows: ELISA, coated His-tagged antigen.
In the case of B1, the binding result is on record as “no binding”.

Regarding B7, the binding result is on record as “no binding”.

As for B2, the binding result is “no binding”.

With B3, the binding result is “no binding”.

Take B8: the binding result was “no binding”.

In the case of B4, the binding result is on record as “no binding”.

Consider B5, for which the binding result is listed as “no binding”.

Turning to B6, the binding result is recorded as “no binding”.

The target in the next assay is SARS-CoV-2 spike protein on live SARS-CoV-2 virus (SARS-CoV-2, UniProt P0DTC2 14-1273). Put plainly: cell-based or functional assay.
On to B1, for which the “IC50, live SARS-CoV-2 미세중화분석, Vero 세포” value is 137 nM.

On to B7, for which the “IC50, live SARS-CoV-2 미세중화분석, Vero 세포” value is 80.5 nM.

For the molecule B2, the “IC50, live SARS-CoV-2 미세중화분석, Vero 세포” value was found to be 11.3 nM.

Regarding B3, the “IC50, live SARS-CoV-2 미세중화분석, Vero 세포” value worked out at 37.5 nM.

Turning to B8, the “IC50, live SARS-CoV-2 미세중화분석, Vero 세포” value was found to be 12.5 nM.

On to B4, for which the “IC50, live SARS-CoV-2 미세중화분석, Vero 세포” value stood at 346 nM.

As for B5, the “IC50, live SARS-CoV-2 미세중화분석, Vero 세포” value turned out to be 231 nM.

As to B6, the “IC50, live SARS-CoV-2 미세중화분석, Vero 세포” value was 0.71 nM.

Another assay has as its target T1, SARS-CoV-2 RBD-mFc. Put plainly: flow cytometry competition: RBD-mFc on HEK293E/ACE2 cells. On the technique in general: In flow cytometry, cells or beads pass a laser one at a time.
Consider B1, for which the IC50 was 2.67 nM.

B7 registered an IC50 of 2.21 nM.

On to B2, for which the IC50 amounted to 2.19 nM.

Consider B3, for which the IC50 worked out at 4.13 nM.

In the case of B8, the IC50 was found to be 1.69 nM.

On to B4, for which the IC50 was 2.21 nM.

Consider B5, for which the IC50 amounted to 2.57 nM.

B6 came in with an IC50 of 2.93 nM.

Another assay addresses SARS-CoV 스파이크 [change] (#40150-V08B1, Sino Biological) (SARS-CoV, UniProt P59594 14-667). Put plainly: ELISA, coated S1-His.
For B1, the binding result is given as “no binding (tested: 50 nM)”.

Turning to B7, the binding result is listed as “no binding (tested: 50 nM)”.

Take B2: the binding result is recorded as “no binding (tested: 50 nM)”.

Consider B3, for which the binding result is “no binding (tested: 50 nM)”.

On to B8, for which the binding result is on record as “no binding (tested: 50 nM)”.

Take B4: the binding result is on record as “no binding (tested: 50 nM)”.

Take B5: the binding result is “no binding (tested: 50 nM)”.

With B6, the binding result is reported as “no binding (tested: 50 nM)”.
